Experimental data reported in US20190225652A1, “GENERATION OF PEPTIDES” (Hexima Limited, priority 2015, published 2019).

Assays:
rOaAEP1b [1] = experiment: Inhibition assay: rOaAEP1b activity against wt IQF peptide; format: biochemical, Oldenlandia affinis; conditions: 40 minutes preincubation, rOaAEP1b 4.4 μg mL^−1, IQF peptide 11 μM, 90 minutes
Method: FIG. 16 is a graphical representation of rOaAEP1b activity against the IQF peptide Abz-STRNGLPS-Y(3NO2) [SEQ ID NO:21] in the presence of protease inhibitors. rOaAEP1b (4.4 μg mL^−1 total protein) was allowed to cleave the IQF peptide (11 μM) for 90 minutes. Enzyme activity against the IQF peptide in the presence of either the Ac-YVAD-CHO or Ac-STRN-CHO inhibitors is reported relative to a no inhibitor control at the 90 minutes time point.
To assay activity of recombinant AEPs (rOaAEP1b, rOaAEP3, rOaAEP4 or rOaAEP5) against both internally-quenched and other fluorescent peptides, substrate and enzyme were diluted as appropriate in activity buffer (50 mM sodium acetate, 50 mM NaCl, 1 mM EDTA, 0.5 μM TCEP, pH 5). […] The change in fluorescence intensity over time was monitored on a SpectraMax M2 (Molecular Devices) using excitation/emission wavelengths of 320/420 nm (IQF peptides) or 360/460 nm (other fluorescent peptides).
To investigate the impact of inhibitors on enzyme activity against the wild type IQF peptide, Abz-STRNGLPS-Y(3NO2), rOaAEP1b (4.4 μg mL^−1 total protein) was incubated with Ac-YVAD-CHO (500 μM) or Ac-STRN-CHO (409 μM) for 40 minutes prior to addition to the substrate (11 μM). Enzyme activity against the wt IQF peptide was then assessed as described above.

[2] = test system: rOaAEP1b, rOaAEP3, rOaAEP4 and rOaAEP5; experiment: Cyclization assay with rOaAEP1b, rOaAEP3, rOaAEP4 and rOaAEP5 (MALDI/ESI MS); format: biochemical, Oldenlandia affinis
Method: Linear target peptides (280 μM, unless otherwise indicated) were incubated with rOaAEP1b, rOaAEP3, rOaAEP4 or rOaAEP5 (total protein concentration as indicated in the description of figures) in activity buffer (50 mM sodium acetate, 50 mM NaCl, 1 mM ethylenediaminetetraacetic acid [EDTA], 0.5 μM Tris(2-carboxyethyl)phosphine hydrochloride [TCEP], pH 5). The reaction was allowed to proceed for up to 22 hours at room temperature and was analysed by matrix-assisted laser desorption/ionization mass spectrometry (MALDI MS), high performance liquid chromatography (HPLC) or nuclear magnetic resonance (NMR) as appropriate.
(§1) Cyclization or inter-molecular ligation of linear target peptides was monitored by MALDI or ESI MS. In both cases, the reaction mixture (5-50 μL) was de-salted using C18 zip tips (Millipore) and eluted in 4 μL 50-75% v/v acetonitrile, 0.1% v/v trifluoroacetic acid (TFA).
(§2) For MALDI MS, a saturated MALDI matrix solution (α-cyano-4-hyroxycinnamic acid, CHCA, Bruker) prepared in 95% v/v acetonitrile, 0.1% v/v TFA was diluted 1:22 such that the final matrix solution comprised 90% v/v acetonitrile, 0.1% v/v TFA and 1 mM NH4H2PO4. Eluted samples were mixed 1:4 with the MALDI matrix, spotted onto a MALDI plate and analyzed by an Ultraflex III TOF/TOF (Bruker) in positive reflector mode. Data were analyzed using the flexAnalysis program (Bruker).
(§3) For ESI MS, 96 μl of 75% v/v acetonitrile, 01% v/v TFA was added to the de-salted sample. The sample was then injected into a MicroTOF Q (Bruker) and data was collected in positive ionisation mode. The mass of ligated or cyclized product was determined by charge deconvolution using the Compass DataAnalysis program (Bruker).
The ability of activated AEPs (rOaAEP1b, rOaAEP3, rOaAEP4 and rOaAEP5) to cyclize peptide substrates structurally unrelated to cyclotides was tested in the cyclization assay described in the Materials and Methods. The anti-malarial peptide R1 (Harris et al. (2009) J Biol Chem 284(14):9361-9371; Harris et al. (2005) Infect Immun 73(10):6981-6989); Bac2A, a linear derivative of the bovine peptide bactenecin (Wu and Hancock (1999) Antimicrob Agents Ch 43:1274-1276); and the anti-fungal peptide EcAMP1 (Nolde et al. (2011) J Biol Chem 286(28):25145-25153) were produced with additional AEP recognition residues and used as the substrates.
To investigate the sequence requirements for in vitro cyclization, R1 was used as a model peptide. The recognition residues added to this model peptide were sequentially trimmed to determine the minimal requirements for AEP-mediated cyclization. The N- and C-terminal recognition residues were also substituted with alternate amino acids to determine if particular classes of residues were preferred for cyclization by these recombinant AEPs. The ability of activated AEPs (rOaAEP1b, rOaAEP3, rOaAEP4 and rOaAEP5) to cyclize the R1 peptide with varied flanking sequences was then tested in the cyclization assay described in the Materials and Methods (FIG. 10; Table 3).

[3] = test system: rOaAEP1b, rOaAEP3, rOaAEP4 and rOaAEP5; experiment: Intermolecular ligation assay with recombinant AEPs; format: biochemical, Oldenlandia affinis; conditions: target 140 μM
Method: Target peptides (140 μM) were incubated with a ligation partner peptide (700 μM) and a recombinant AEP (rOaAEP1b, rOaAEP3, rOaAEP4 or rOaAEP5 at 19.7 μg mL^−1 total protein) in activity buffer (50 mM sodium acetate, 50 mM NaCl, 1 mM EDTA, 0.5 μM TCEP, pH 5). The reaction was allowed to proceed for up to 22 hours at room temperature and was analysed by MALDI MS or electrospray ionisation (ESI) mass spectrometry as appropriate.
as §1, §2, §3
To investigate the ability of recombinantly produced AEPs to perform inter-molecular ligation (as well as the intra-molecular ligation required to produce backbone-cyclized peptides), target peptides were incubated with ligation partner peptides as well as active enzyme (FIG. 11). The appearance of new linear peptides were tracked. […]

rOaAEP1b [4] = experiment: Cyclization assay with rOaAEP1b (MALDI MS); format: biochemical, Oldenlandia affinis; conditions: MALDI MS
rOaAEP1b [5] = experiment: Kinetics of rOaAEP1b-mediated cyclisation of wt kB1 precursor (RP-HPLC, Michaelis-Menten); format: biochemical, Oldenlandia affinis; conditions: substrate 75-250 μM, room temperature, 5 min, enzyme 19.7 μg ml^−1 total protein, ±s.e.m.
Method: FIG. 7 is a graphical representation showing the kinetics of rOaAEP1b-mediated cyclisation. Varying concentrations of substrate (kB1wt precursor) were incubated with enzyme (19.7 μg mL^−1 total protein) for 5 min. The amount of product formed was inferred by monitoring depletion of the precursor by RP-HPLC. […] The kinetic parameters derived from this plot are listed (±SEM).
To determine the kinetics of rOaAEP1b activity against the wt kB1 precursor (FIG. 1; SEQ ID NO: 11), the substrate was assayed at room temperature at a range of concentrations between 75 and 250 μM in a total volume of 20-160 μl of activity buffer. The total protein concentration of the enzyme preparation added to the kinetic assays was 19.7 μg ml^−1. The reaction was quenched after 5 min with 0.1% TFA and the volume adjusted to 800 μl. A volume of 700 μl was loaded onto a reversed-phase C18 analytical column (Agilent Eclipse C18, 5 μm, 4.6×150 mm) and peptides were separated by HPLC (19 min linear gradient of 12-60% acetonitrile, 0.1% TFA at 1 ml min^−1). The identity of eluted peaks was confirmed using MALDI MS. The area under the curve corresponding to the precursor peptide was quantitated by comparison to a standard curve and initial velocities were calculated by converting this to μmoles product formed. […]

[6] = target: T1, R1 peptide derivative GLPVFAEFLPLFSKFGSRMHILKSTRNGLP
T1 chain: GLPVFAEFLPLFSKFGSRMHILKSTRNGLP

[7] = target: T2, R1 peptide derivative QLVFAEFLPLFSKFGSRMHILKNGL
T2 chain: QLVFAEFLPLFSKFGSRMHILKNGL

[8] = target: T3, R1 peptide derivative GLVFAEFLPLFSKFGSRMHILKNGL
T3 chain: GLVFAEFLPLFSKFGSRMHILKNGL

[9] = target: T4, R1 peptide derivative KLVFAEFLPLFSKFGSRMHILKNGL
T4 chain: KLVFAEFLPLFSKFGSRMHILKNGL

[10] = target: T5, R1 peptide derivative GLVFAEFLPLFSKFGSRMHILKNG
T5 chain: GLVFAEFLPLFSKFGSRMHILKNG

[11] = target: T6, synthetic linear kalata B1 precursor carrying the native C-terminal pro-hepta-peptide GLPSLAA (wt kB1 precursor)
T6 chain: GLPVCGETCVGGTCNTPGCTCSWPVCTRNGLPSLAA

[12] = target: T7, R1 peptide derivative VFAEFLPLFSKFGSRMHILKNGL
T7 chain: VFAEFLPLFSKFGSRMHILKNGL

Ac-STRN-aldehyde
efficacy of inhibitor against rOaAEP1b (rOaAEP1b [1]; inhibitor 409 μM): limited efficacy

Ac-YVAD-CHO
efficacy of inhibitor against rOaAEP1b (rOaAEP1b [1]; inhibitor 500 μM): limited efficacy

GLP-NaD1-TRNGLP: plant defensin NaD1 with AEP recognition residues at N- and C-termini, expressed in Pichia pastoris (GLPRECKTESNTFPGICITKPPCRKACISEKFTDGHCSKILRRCLCTKPCTRNGLP; Target peptides)
AEP-mediated backbone cyclization of modified NaD1 ([2]; 140 μM, no ligation partner, ESI-MS): no evidence of backbone-cyclization | inter-molecular ligation, C-terminal labelling ([3]; ligation partner GLPVSGE or PLPVSGE 700 μM, enzymes 19.7 μg mL^−1, 6-22 h, ESI-MS): new, linear, peptides were detected

GLVFAEFLPLFSKFGSRMHILKGHV (R1) [SEQ ID NO:61, R1 peptide derivative]
cyclization of linear precursor peptide by recombinant AEPs ([2]; peptides with added AEP recognition residues, 280 μM, enzymes 19.7 μg mL^−1 total protein, MS): not itself an AEP substrate | inter-molecular ligation, N-terminal labelling ([3]; ligation partner biotin-TRNGL 700 μM, enzymes 19.7 μg mL^−1, 6 h, MALDI-MS): created a new linear peptide that incorporated an N-terminal biotin

wt kB1 precursor: synthetic linear kalata B1 precursor carrying the native C-terminal pro-hepta-peptide (GLPSLAA) (GLPVCGETCVGGTCNTPGCTCSWPVCTRNGLPSLAA; kB1wt)
processing/cyclization by rOaAEP1b (rOaAEP1b [4]): consistent with the expected mass of mature, cyclic kB1 | kcat (rOaAEP1b [5]; conservative estimate (32 kDa, total protein taken as active enzyme)): 0.53 (±0.1) s^−1 | Km (rOaAEP1b [5]): 212 µM

B1: recombinant Oldenlandia affinis asparaginyl endopeptidase OaAEP1b, activated (rOaAEP1b) (protein)
chain: MVRYLAGAVLLLVVLSVAAAVSGARDGDYLHLPSEVSRFFRPQETNDDHGEDSVGTRWAVLIAGSKGYANYRHQAGVCHAYQILKRGGLKDENIVVFMYDDIAYNESNPRPGVIINSPHGSDVYAGVPKDYTGEEVNAKNFLAAILGNKSAITGGSGKVVDSGPNDHIFIYYTDHGAAGVIGMPSKPYLYADELNDALKKKHASGTYKSLVFYLEACESGSMFEGILPEDLNIYALTSTNTTESSWCYYCPAQENPPPPEYNVCLGDLFSVAWLEDSDVQNSWYETLNQQYHHVDKRISHASHATQYGNLKLGEEGLFVYMGSNPANDNYTSLDGNALTPSSIVVNQRDADLLHLWEKFRKAPEGSARKEVAQTQIFKAMSHRVHIDSSIKLIGKLLFGIEKCTEILNAVRPAGQPLVDDWACLRSLVGTFETHCGSLSEYGMRHTRTIANICNAGISEEQMAEAASQACASIP
Cyclic product (%) [6]: 78.8% | Linear precursor (%) [6]: 21.2% | Cyclic product (%) [7]: 93.1% | Linear precursor (%) [7]: 6.9% | Cyclic product (%) [8]: 92.9% | Linear precursor (%) [8]: 7.1% | Cyclic product (%) [9]: 82.2% | Linear precursor (%) [9]: 17.8% | Linear precursor (%) [10]: 100% | Km [11]: 212 (±76) µM for Km | kcat [11]: 0.53 (±0.1) s^-1 for kcat | kcat/Km [11]: 2,500 M^-1 s^-1 for kcat/Km | Cyclic product (%) [12]: 49.6% | Linear precursor (%) [12]: 27.7% | Linear product (%) [12]: 27.7%
